According to publication PMC8897147 (Acta Pharmaceutica Sinica. B, 2021):
One block for each binder: values may come before it.

Columns and labels:
Experiment in all cases: FRET or BRET
[1] = target: calcitonin-like receptor-Rluc8 (human, UniProt Q16602 23-461)
glucagon receptor-Rluc8 = glucagon receptor-Rluc8 (UniProt P47871 26-477)
[2] = target: T1, gastric inhibitory polypeptide receptor-Rluc8 (UniProt P48546 22-466)
T1 sequence: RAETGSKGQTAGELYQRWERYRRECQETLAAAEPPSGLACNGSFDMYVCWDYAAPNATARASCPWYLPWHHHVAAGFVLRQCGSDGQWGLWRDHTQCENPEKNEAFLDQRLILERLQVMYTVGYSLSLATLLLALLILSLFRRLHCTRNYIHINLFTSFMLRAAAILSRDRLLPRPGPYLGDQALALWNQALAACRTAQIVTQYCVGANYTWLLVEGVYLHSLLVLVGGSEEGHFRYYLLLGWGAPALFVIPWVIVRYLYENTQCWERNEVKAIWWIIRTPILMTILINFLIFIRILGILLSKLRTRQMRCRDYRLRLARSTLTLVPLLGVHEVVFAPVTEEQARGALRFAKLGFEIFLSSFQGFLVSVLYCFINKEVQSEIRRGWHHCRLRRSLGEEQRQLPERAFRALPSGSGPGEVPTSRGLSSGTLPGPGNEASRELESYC

[3] = target: T2, growth hormone-releasing hormone receptor-Rluc8 (UniProt Q02643 23-423)
T2 sequence: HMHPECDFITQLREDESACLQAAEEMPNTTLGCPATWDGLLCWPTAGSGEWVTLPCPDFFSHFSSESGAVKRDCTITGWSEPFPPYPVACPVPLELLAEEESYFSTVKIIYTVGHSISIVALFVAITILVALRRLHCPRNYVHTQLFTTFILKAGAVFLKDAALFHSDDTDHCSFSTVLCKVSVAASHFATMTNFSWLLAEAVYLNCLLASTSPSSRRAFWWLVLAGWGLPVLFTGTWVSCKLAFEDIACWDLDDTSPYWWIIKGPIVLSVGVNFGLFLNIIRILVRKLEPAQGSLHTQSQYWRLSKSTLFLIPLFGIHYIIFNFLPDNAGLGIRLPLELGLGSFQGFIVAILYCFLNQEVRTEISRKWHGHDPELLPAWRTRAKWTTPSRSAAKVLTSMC

secretin receptor-Rluc8 = secretin receptor-Rluc8 (UniProt P47872 23-440)
secretin receptor-Rluc8, sequence (P47872 23-440): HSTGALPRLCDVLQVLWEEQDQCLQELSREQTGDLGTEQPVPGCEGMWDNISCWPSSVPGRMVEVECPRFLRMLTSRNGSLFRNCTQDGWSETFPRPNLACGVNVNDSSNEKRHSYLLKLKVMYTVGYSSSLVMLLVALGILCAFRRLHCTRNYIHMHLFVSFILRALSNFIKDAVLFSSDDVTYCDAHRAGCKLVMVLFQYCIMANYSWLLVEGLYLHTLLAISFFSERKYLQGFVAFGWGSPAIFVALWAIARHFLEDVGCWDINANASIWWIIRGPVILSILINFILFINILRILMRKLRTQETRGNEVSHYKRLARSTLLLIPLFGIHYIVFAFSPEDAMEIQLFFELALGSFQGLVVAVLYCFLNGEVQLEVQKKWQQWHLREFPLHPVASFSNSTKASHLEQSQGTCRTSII

[4] = target: glucagon-like peptide-1 receptor-Rluc8 (UniProt P43220 24-463)
[5] = target: T3, glucagon-like peptide-2 receptor-Rluc8 (UniProt O95838 1-553)
T3 sequence: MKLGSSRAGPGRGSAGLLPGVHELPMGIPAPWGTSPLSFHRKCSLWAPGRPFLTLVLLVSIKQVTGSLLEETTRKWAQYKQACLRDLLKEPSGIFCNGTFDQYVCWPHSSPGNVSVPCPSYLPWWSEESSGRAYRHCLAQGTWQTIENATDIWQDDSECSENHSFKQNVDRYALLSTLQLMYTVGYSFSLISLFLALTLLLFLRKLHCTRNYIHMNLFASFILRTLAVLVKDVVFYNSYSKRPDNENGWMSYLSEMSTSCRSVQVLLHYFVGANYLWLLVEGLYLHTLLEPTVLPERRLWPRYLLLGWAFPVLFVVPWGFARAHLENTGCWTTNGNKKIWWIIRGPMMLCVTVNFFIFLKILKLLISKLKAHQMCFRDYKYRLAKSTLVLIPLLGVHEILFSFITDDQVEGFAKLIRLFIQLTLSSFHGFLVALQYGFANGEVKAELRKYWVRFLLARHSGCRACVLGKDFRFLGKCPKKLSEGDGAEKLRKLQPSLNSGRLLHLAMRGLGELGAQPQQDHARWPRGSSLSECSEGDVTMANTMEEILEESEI

glucagon receptor-Rluc8, sequence (P47871 26-477): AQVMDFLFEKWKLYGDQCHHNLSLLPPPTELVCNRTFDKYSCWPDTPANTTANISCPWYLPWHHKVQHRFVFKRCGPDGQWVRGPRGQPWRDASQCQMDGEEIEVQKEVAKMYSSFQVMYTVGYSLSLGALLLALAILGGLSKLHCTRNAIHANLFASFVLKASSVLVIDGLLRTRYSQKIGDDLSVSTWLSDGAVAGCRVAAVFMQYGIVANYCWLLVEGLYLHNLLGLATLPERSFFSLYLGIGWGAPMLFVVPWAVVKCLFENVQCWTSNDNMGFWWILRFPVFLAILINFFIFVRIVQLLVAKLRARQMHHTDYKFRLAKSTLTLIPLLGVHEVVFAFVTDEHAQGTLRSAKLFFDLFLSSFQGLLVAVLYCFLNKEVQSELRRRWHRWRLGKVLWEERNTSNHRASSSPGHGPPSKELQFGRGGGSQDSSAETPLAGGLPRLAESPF
calcitonin-like receptor-Rluc8, sequence (Q16602 23-461): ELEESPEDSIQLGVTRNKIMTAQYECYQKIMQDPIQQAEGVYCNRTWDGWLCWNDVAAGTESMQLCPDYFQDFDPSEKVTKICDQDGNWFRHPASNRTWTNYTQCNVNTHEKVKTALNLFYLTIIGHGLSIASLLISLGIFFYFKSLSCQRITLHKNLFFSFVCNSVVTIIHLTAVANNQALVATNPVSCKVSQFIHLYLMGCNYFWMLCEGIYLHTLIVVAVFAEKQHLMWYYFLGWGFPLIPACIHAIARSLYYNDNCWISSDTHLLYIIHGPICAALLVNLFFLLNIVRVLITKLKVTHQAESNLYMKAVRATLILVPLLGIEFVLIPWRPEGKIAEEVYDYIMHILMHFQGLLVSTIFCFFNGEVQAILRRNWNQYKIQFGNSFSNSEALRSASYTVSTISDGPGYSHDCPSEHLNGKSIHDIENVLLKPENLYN

BRET50 (Kd) [1]: 0.077 intensity ratio of RAMP:receptor
BRET50 (Kd) (glucagon receptor-Rluc8): 1.55 intensity ratio of RAMP:receptor
BRET50 (Kd) [2]: 4.6 intensity ratio of RAMP:receptor
B1: RAMP1-Ypet (receptor activity-modulating protein 1) (natural protein)
chain: CQEANYGALLRELCLTQFQVDMEAVGETLWCDWGRTIRSYRELADCTWHMAEKLGCFWPNAEVDRFFLAVHGRYFRSCPISGRAVRDPPGSILYPFIVVPITVTLLVTALVVWQSKRTEGIV

BRET50 (Kd) [1]: 0.087 intensity ratio of RAMP:receptor
BRET50 (Kd) (glucagon receptor-Rluc8): 2.34 intensity ratio of RAMP:receptor
BRET50 (Kd) [2]: 0.352 intensity ratio of RAMP:receptor
BRET50 (Kd) [3]: 2.09 intensity ratio of RAMP:receptor
BRET50 (Kd) (secretin receptor-Rluc8): 1.63 intensity ratio of RAMP:receptor
BRET50 (Kd) [4]: 1 intensity ratio of RAMP:receptor
BRET50 (Kd) [5]: 1.66 intensity ratio of RAMP:receptor
B2: RAMP3-Ypet (receptor activity-modulating protein 3) (natural protein)
chain: RAGGCNETGMLERLPLCGKAFADMMGKVDVWKWCNLSEFIVYYESFTNCTEMEANVVGCYWPNPLAQGFITGIHRQFFSNCTVDRVHLEDPPDEVLIPLIVIPVVLTVAMAGLVVWRSKRTDTLL

BRET50 (Kd) [1]: 0.114 intensity ratio of RAMP:receptor
BRET50 (Kd) (glucagon receptor-Rluc8): 1.65 intensity ratio of RAMP:receptor
BRET50 (Kd) [2]: 2.75 intensity ratio of RAMP:receptor
BRET50 (Kd) [3]: 0.893 intensity ratio of RAMP:receptor
BRET50 (Kd) [5]: 7.45 intensity ratio of RAMP:receptor
B3: RAMP2-Ypet (receptor activity-modulating protein 2) (natural protein)
chain: QPLPTTGTPGSEGGTVKNYETAVQFCWNHYKDQMDPIEKDWCDWAMISRPYSTLRDCLEHFAELFDLGFPNPLAERIIFETHQIHFANCSLVQPTFSDPPEDVLLAMIIAPICLIPFLITLVVWRSKDSEAQA
